The record followed here is article PMC10492923 (MedComm, 2023).

For the assay, the target named is T1, extracellular protease domain of wild-type ACE2 (human, UniProt Q9BYF1 19-615).
T1 construct: also called WT ACE2ecd; ACE2ecd
Put plainly: SPR. Particulars: both partners purified.

T1 sequence (Q9BYF1 19-615): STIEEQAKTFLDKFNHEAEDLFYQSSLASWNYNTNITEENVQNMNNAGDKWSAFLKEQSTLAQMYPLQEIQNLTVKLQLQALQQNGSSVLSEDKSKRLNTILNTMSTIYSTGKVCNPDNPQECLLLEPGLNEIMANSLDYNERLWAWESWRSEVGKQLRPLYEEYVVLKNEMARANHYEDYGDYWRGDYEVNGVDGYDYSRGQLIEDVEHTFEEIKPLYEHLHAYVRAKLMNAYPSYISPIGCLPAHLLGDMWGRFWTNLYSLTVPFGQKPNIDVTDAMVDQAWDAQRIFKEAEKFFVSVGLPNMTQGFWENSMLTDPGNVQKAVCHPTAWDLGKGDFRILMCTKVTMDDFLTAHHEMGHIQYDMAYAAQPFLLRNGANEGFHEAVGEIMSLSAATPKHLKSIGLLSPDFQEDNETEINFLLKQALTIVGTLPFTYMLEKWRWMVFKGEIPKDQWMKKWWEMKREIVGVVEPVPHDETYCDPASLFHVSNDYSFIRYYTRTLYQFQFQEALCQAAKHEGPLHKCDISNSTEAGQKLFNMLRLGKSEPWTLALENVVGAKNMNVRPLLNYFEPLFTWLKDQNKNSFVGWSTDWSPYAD

B1: RBD of HCoV-NL63 (domain or fragment)
chain: QHTDINFTATASFGGSCYVCKPHQVNISLNGNTSVCVRTSHFSIRYIYNRVKSGSPGDSSWHIYLKSGTCPFSFSKLNNFQKFKTICFSTVEVPGSCNFPLEATWHYTSYTIVGALYVTWSEGNSITGVPYPVSGI
With B1, the binding result is “binds”.
